Results on 3 substances are retold here after US20260207779.

The data set has as its system TALE-TadA8e(V106W) (Escherichia coli). As to the kind of experiment: cell_activity. The conditions noted are these: paired TALE-TadA8e(V106W) without nickase, value is the maximum over three loci.

As for MT-ND1 target, the activity was < 0.39%.
The same measure, in the same setting: the result for MT-ND4 target reads < 0.39%.
On to MT-RNR2 target, for which, where the note is “barely above sequencing error”, the activity is < 0.39%.
